Substrate in data set [1]: CC[C@H](C)[C@H](NC(=O)[C@H](CCCNC(=N)N)NC(=O)[C@H](Cc1c[nH]cn1)NC(=O)[C@H](Cc1c[nH]cn1)NC(=O)[C@H](Cc1c[nH]cn1)NC(=O)[C@H](CC(C)C)NC(=O)CNC(=O)CNC(=O)[C@H](C)NC(=O)[C@H](CC(N)=O)NC(=O)CNC(=O)[C@H](CCCNC(=N)N)NC(=O)CN)C(=O)N[C@@H](CC(N)=O)C(=O)N[C@@H](Cc1ccccc1)C(=O)N[C@@H](CC(=O)O)C(=O)N[C@@H](CCCCN)C(=O)N[C@@H](Cc1ccc(O)cc1)C(=O)N[C@@H](Cc1c[nH]cn1)C(=O)N1CCC[C@H]1C(=O)O
In words: Determination of enzyme kinetic parameters (MS assay). It is filed as biochemical. As to conditions: other: 2OG, Fe(II): MINA53 (Met26-Val464), n = 4; peptide: MINA53 (Met1-Val464), n = 3; means ± 95% confidence.

Substrate in data set [2]: CC[C@H](C)[C@H](NC(=O)[C@H](Cc1c[nH]cn1)NC(=O)[C@H](CCC(N)=O)NC(=O)[C@H](Cc1c[nH]cn1)NC(=O)[C@H](CC(N)=O)NC(=O)CNC(=O)CNC(=O)CNC(=O)[C@H](Cc1ccccc1)NC(=O)[C@@H]1CCCN1C(=O)[C@H](Cc1c[nH]cn1)NC(=O)[C@H](CCC(=O)O)NC(=O)[C@@H](NC(=O)[C@@H]1CCCN1C(=O)[C@@H](N)CC(N)=O)C(C)C)C(=O)NCC(=O)N[C@@H](CCCCN)C(=O)N1CCC[C@H]1C(=O)N[C@@H](CO)C(=O)N[C@H](C(=O)O)[C@@H](C)O
The data set is described as above. The following applies: other: 2OG, Fe(II): NO66 (Ser183-Asn641), n = 4; peptide: NO66 (Gln116-Asn641), n = 3; means ± 95% confidence. In kind it is biochemical.

B1: MINA53 (Homo sapiens) (protein)
chain: MPKKAKPTGSGKEEGPAPCKQMKLEAAGGPSALNFDSPSSLFESLISPIKTETFFKEFWEQKPLLIQRDDPALATYYGSLFKLTDLKSLCSRGMYYGRDVNVCRCVNGKKKVLNKDGKAHFLQLRKDFDQKRATIQFHQPQRFKDELWRIQEKLECYFGSLVGSNVYITPAGSQGLPPHYDDVEVFILQLEGEKHWRLYHPTVPLAREYSVEAEERIGRPVHEFMLKPGDLLYFPRGTIHQADTPAGLAHSTHVTISTYQNNSWGDFLLDTISGLVFDTAKEDVELRTGIPRQLLLQVESTTVATRRLSGFLRTLADRLEGTKELLSSDMKKDFIMHRLPPYSAGDGAELSTPGGKLPRLDSVVRLQFKDHIVLTVLPDQDQSDEAQEKMVYIYHSLKNSRETHMMGNEEETEFHGLRFPLSHLDALKQIWNSPAISVKDLKLTTDEEKESLVLSLWTECLIQVV
Take B1: in data set [1], the Km stood at 10.5 ± 5.5 µM and the maximum rate (Vmax) was 0.36 ± 0.1 µM/min.

B2: NO66 (Homo sapiens) (protein)
chain: MDGLQASAGPLRRGRPKRRRKPQPHSGSVLALPLRSRKIRKQLRSVVSRMAALRTQTLPSENSEESRVESTADDLGDALPGGAAVAAVPDAARREPYGHLGPAELLEASPAARSLQTPSARLVPASAPPARLVEVPAAPVRVVETSALLCTAQHLAAVQSSGAPATASGPQVDNTGGEPAWDSPLRRVLAELNRIPSSRRRAARLFEWLIAPMPPDHFYRRLWEREAVLVRRQDHTYYQGLFSTADLDSMLRNEEVQFGQHLDAARYINGRRETLNPPGRALPAAAWSLYQAGCSLRLLCPQAFSTTVWQFLAVLQEQFGSMAGSNVYLTPPNSQGFAPHYDDIEAFVLQLEGRKLWRVYRPRVPTEELALTSSPNFSQDDLGEPVLQTVLEPGDLLYFPRGFIHQAECQDGVHSLHLTLSTYQRNTWGDFLEAILPLAVQAAMEENVEFRRGLPRDFMDYMGAQHSDSKDPRRTAFMEKVRVLVARLGHFAPVDAVADQRAKDFIHDSLPPVLTDRERALSVYGLPIRWEAGEPVNVGAQLTTETEVHMLQDGIARLVGEGGHLFLYYTVENSRVYHLEEPKCLEIYPQQADAMELLLGSYPEFVRVGDLPCDSVEDQLSLATTLYDKGLLLTKMPLALN
As for B2, in data set [2], the Km is 19.11 ± 6.3 µM and the Vmax is 0.34 ± 0.05 µM/min.

The term Km denotes the substrate concentration at which the rate is half of its maximum. The Vmax is the top rate of the reaction or transport when substrate is in excess.

For the origin of these results see article PMC8667043, “First-in-Class Inhibitors of the Ribosomal Oxygenase MINA53” (Journal of Medicinal Chemistry, 2021).
